Molecular target: T1, Syntaxin 1a (mouse, UniProt O35526 1-288)
T1 construct: also called STX1a; STX 1a
Assay: Co-IP with anti-STX1a antibody from mouse cortical synaptosomes, Western blot

T1 sequence (O35526 whole entry): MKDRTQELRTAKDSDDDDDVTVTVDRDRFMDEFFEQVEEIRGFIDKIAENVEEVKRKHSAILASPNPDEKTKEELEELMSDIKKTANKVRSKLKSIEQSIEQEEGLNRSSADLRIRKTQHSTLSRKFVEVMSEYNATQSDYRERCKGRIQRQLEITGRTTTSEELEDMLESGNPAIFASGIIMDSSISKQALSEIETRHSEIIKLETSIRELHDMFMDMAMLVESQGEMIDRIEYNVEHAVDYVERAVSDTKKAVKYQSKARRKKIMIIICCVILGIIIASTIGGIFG

B1: c-Jun N-terminal Kinase isoform 1 (JNK1) (enzyme, mouse, UniProt Q91Y86 1-384, looked up)
chain: MSRSKRDNNFYSVEIGDSTFTVLKRYQNLKPIGSGAQGIVCAAYDAILERNVAIKKLSRPFQNQTHAKRAYRELVLMKCVNHKNIIGLLNVFTPQKSLEEFQDVYIVMELMDANLCQVIQMELDHERMSYLLYQMLCGIKHLHSAGIIHRDLKPSNIVVKSDCTLKILDFGLARTAGTSFMMTPYVVTRYYRAPEVILGMGYKENVDLWSVGCIMGEMVCHKILFPGRDYIDQWNKVIEQLGTPCPEFMKKLQPTVRTYVENRPKYAGYSFEKLFPDVLFPADSEHNKLKASQARDLLSKMLVIDASKRISVDEALQHPYINVWYDPSEAEAPPPKIPDKQLDEREHTIEEWKELIYKEVMDLEERTKNGVIRGQPSPLAQVQQ
notes: Lower 46 kDa band of the JNK signal in the non-immunoprecipitated control; also called lower band, 46 kDa
- binding result: no binding

— patent publication US20170128524A1 (published 2017)
